Positions count from the first letter of the chain named. Names and notes keep the numbering of the source.
How the values were obtained:
[1] = target: RNF4 C55S, C59S tagged with glycine-cysteine at its C terminus (RNF4-C196); test: cross-linking; disulfide dimer formation of RNF4-C196; 0.062, 0.12, 0.25, 0.5 and 1 μM protein, room temperature, 2 hr, no reducing agents, no SUMO; nonreducing SDS-PAGE and western blotting with an RNF4 antibody; the species is sensitive to DTT
[2] = target: T1, RNF4 wild type, recombinant, with N-terminal fusions of ECFP or YFP, O88846; test: FRET or BRET; in vitro FRET in the absence of poly-SUMO-2; YFP-RNF4 fixed at 0.5 μM, ECFP-RNF4 increased in 0.05 μM increments from 0 to 0.5 μM; triplicates; fit to a single binding site model; monomer to dimer; settings: remark: other sources report otherwise
T1 chain: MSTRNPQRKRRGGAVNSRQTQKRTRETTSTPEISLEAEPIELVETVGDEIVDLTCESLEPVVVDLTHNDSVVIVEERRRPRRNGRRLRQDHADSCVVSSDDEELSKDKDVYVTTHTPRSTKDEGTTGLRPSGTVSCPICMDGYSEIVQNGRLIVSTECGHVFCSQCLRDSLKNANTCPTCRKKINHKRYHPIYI

[3] = target: T1, RNF4 wild type, recombinant, with …; test: FRET or BRET; in vitro FRET in the presence of poly-SUMO-2; YFP-RNF4 fixed at 0.5 μM, ECFP-RNF4 increased in 0.05 μM increments from 0 to 0.5 μM; triplicates; apparent Kd from a fit to a single binding site model; settings: remark: other sources report otherwise
FRET; with polySUMO-2 = target: the molecule itself; test: FRET; with polySUMO-2

Q: “RNF4 C55S, C59S tagged with glycine-cysteine at its C terminus (RNF4-C196) (enzyme)” was tested. Which stoichiometry N [1] did it give?
A: 2

B1: RNF4 wild type, recombinant, with N-terminal fusions of ECFP or YFP, O88846 1-194 (enzyme)
chain: T1 chain
Q: What does the source list for B1?
A: Kd [2]: 180 nM; Kd [3]: 60 nM

B2: RNF4 I194A, dimerization-deficient mutant, recombinant, with N-terminal fusions of ECFP or YFP (enzyme)
chain: T1 chain with I194A
Q: Which Kd (FRET; with polySUMO-2) does the source give for B2 here?
A: 166 nM
